The record followed here is paper PMC5551644.

Read-outs that look alike come from different tables or passages of the source.

Assay [1] concerns the target TGF-β2TM, variant of TGF-β2 bearing K25R, I92V, and K94R substitutions (human). The assay is described as follows: SPR. A general note: In SPR one partner is held on a chip, and binding of the other changes the refractive index at the surface.
Assay [2] has as its target Transforming growth factor β2 (TGF-β2), recombinant human (human) (UniProt P61812). Kind of assay: SPR.
For assay [3] the target is unchanged. Kind of assay: SPR. The source holds these as a separate data set.
Assay [4] has as its target TGF-β2TM/TβRII binary complex (UniProt P37173). The assay is described as follows: SEC-MALS.
Assay [5] shares this target. The assay is described as follows: SEC. (Size exclusion chromatography separates by hydrodynamic size, large species first.)
Assay [6] has the same target. The assay is described as follows: ITC. On the technique in general: ITC needs no label: the signal is the heat of the interaction.
Assay [7] deals with TGF-β2TM, variant of TGF-β2 bearing K25R, I92V, and K94R substitutions (human). The assay is described as follows: SPR. This is another data set of the same source.
The target of assay [8] is Transforming growth factor β2 (TGF-β2), recombinant human (human) (UniProt P61812). Kind of assay: ITC.

In general, Kd refers to a measure of binding affinity in units of concentration. As to “C-terminal portion of the betaglycan zona pellucida domain (BG_(ZP-C)) (from UniProt P26342 589-761) (domain or fragment)”, the Kd in assay [1] is 325 nM; in assay [3], 450 nM. For the same substance, the apparent KD with 2 μM TβRII in assay [2] was 600 nM.

For “betaglycan orphan domain (BGO), produced in E. coli (from UniProt P26342 24-384) (domain or fragment)”, the stoichiometry N (BGO per TGF-β2TM homodimer) in assay [4] and in assay [5] was 1 in each case. Further, the dissociation constant (Kd) in assay [1] is 98 nM.

The term stoichiometry N denotes the number of molecules, sites or subunits per partner or assembly. In the case of “betaglycan orphan domain (BGO), produced in HEK-293 expi cells (from UniProt P26342 24-383) (domain or fragment)”, in assay [6], the Kd stood at 82 nM, the dH is -38.8 kJ mol^–1 and the stoichiometry N is 1.07 sites.

For “betaglycan zona pellucida domain (BGZP) (from UniProt P26342 450-761) (domain or fragment)”, the equilibrium dissociation constant (Kd) in assay [1] came to 287 nM; in assay [7] it was 290 nM; in assay [3], 450 nM. Further, in assay [2], the apparent KD with 4 μM TβRII came out at 600 nM.

As for “full-length betaglycan extracellular domain (BG_(O-ZP)) (from UniProt P26342 24-761) (domain or fragment)”, the dissociation constant Kd in assay [8] came out at 109 nM; in assay [1], 5.5 nM. Also, in assay [8], the dH was -52.6 kJ mol^–1. Also, in assay [8], the stoichiometry N stood at 1.04 sites. Further, the stoichiometry N (BG (O-ZP) per TGF-β2TM homodimer) in assay [4] and in assay [5] was 1 each time.
